Experimental findings from IntAct's records for PubMed 21685908 are described below.

To fix the notation:
B1: Rab5 GDP/GTP exchange factor (Homo sapiens), Q9UJ41 (parent)
chain: MSLKSERRGIHVDQSDLLCKKGCGYYGNPAWQGFCSKCWREEYHKARQKQIQEDWELAERLQREEEEAFASSQSSQGAQSLTFSKFEEKKTNEKTRKVTTVKKFFSASSRVGSKKEIQEAKAPSPSINRQTSIETDRVSKEFIEFLKTFHKTGQEIYKQTKLFLEGMHYKRDLSIEEQSECAQDFYHNVAERMQTRGKVPPERVEKIMDQIEKYIMTRLYKYVFCPETTDDEKKDLAIQKRIRALRWVTPQMLCVPVNEDIPEVSDMVVKAITDIIEMDSKRVPRDKLACITKCSKHIFNAIKITKNEPASADDFLPTLIYIVLKGNPPRLQSNIQYITRFCNPSRLMTGEDGYYFTNLCCAVAFIEKLDAQSLNLSQEDFDRYMSGQTSPRKQEAESWSPDACLGVKQMYKNLDLLSQLNERQERIMNEAKKLEKDLIDWTDGIAREVQDIVEKYPLEIKPPNQPLAAIDSENVENDKLPPPLQPQVYAG

The variants in this experiment derive from B1. Conditions: with eea1_human EEA1, Q15075.
Sequence of eea1_human EEA1, Q15075 (Q15075 whole entry): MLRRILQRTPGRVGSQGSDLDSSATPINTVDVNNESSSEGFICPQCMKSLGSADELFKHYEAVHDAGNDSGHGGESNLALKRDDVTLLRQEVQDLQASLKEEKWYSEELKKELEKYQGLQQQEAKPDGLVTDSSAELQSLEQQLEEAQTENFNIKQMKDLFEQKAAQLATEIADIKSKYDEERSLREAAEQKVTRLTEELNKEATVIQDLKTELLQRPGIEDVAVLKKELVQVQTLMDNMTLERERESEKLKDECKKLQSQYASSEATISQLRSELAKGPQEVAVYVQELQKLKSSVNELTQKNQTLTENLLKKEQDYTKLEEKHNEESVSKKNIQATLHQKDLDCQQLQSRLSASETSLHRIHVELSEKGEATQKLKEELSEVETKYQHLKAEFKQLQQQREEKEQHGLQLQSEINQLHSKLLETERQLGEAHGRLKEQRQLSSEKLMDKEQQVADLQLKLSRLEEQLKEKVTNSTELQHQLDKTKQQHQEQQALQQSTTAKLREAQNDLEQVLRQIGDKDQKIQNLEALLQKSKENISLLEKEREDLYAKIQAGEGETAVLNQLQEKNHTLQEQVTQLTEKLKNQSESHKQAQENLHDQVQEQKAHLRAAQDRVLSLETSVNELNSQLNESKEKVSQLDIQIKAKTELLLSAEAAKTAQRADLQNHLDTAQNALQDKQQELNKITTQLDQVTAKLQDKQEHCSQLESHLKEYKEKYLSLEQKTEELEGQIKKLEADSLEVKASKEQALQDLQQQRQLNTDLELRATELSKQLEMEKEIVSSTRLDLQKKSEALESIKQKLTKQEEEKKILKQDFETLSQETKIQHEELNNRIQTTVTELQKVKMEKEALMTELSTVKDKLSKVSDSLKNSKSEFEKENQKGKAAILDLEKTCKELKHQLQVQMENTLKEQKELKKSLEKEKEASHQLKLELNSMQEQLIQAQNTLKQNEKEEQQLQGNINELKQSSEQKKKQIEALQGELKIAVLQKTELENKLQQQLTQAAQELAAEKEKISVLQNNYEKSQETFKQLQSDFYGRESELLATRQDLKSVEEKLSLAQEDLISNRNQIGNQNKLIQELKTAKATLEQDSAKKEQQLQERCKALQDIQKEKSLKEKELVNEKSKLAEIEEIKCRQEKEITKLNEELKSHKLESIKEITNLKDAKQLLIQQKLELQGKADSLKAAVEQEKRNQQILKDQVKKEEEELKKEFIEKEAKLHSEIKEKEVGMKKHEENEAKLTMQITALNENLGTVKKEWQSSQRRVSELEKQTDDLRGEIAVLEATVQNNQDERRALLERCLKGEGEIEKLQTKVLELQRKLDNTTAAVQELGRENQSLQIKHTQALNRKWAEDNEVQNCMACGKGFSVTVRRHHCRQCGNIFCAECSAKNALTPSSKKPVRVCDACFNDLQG
As for Q79L, the “effect of a mutation on the interaction” value was “increasing interaction”.
